Reference: patent publication US20190338009A1 (ZEALAND PHARMA A S, published 2019)
Square brackets hold non-standard residues; d marks the D form. Aib = CC(C)(N)C(=O)O

T1: human GLP-2 receptor (hGLP2-R) (human, UniProt O95838 1-553)
T1 sequence (looked up): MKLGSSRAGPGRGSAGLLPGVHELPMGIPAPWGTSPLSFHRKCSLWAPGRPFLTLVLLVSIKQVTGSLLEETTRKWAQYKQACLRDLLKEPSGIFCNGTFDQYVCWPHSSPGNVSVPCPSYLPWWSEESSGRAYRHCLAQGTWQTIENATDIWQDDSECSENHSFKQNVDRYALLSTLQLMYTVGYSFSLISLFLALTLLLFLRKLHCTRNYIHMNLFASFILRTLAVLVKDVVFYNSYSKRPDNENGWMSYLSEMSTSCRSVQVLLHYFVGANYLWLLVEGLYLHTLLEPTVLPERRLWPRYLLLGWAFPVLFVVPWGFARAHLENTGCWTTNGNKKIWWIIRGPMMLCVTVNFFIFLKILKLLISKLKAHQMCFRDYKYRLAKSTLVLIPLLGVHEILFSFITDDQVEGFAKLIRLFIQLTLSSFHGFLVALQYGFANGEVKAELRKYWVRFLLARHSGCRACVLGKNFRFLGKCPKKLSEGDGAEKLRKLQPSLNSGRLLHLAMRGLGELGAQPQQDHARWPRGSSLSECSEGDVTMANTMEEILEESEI

B1: Compound 3 (peptide)
peptide: H-H[Aib]EGTFTSELATILDEQAARDFIAWLIAHKITD-OH
SMILES: CC[C@H](C)[C@H](NC(=O)[C@H](CC(C)C)NC(=O)[C@H](Cc1c[nH]c2ccccc12)NC(=O)[C@H](C)NC(=O)[C@@H](NC(=O)[C@H](Cc1ccccc1)NC(=O)[C@H](CC(=O)O)NC(=O)[C@H](CCCNC(=N)N)NC(=O)[C@H](C)NC(=O)[C@H](C)NC(=O)[C@H](CCC(N)=O)NC(=O)[C@H](CCC(=O)O)NC(=O)[C@H](CC(=O)O)NC(=O)[C@H](CC(C)C)NC(=O)[C@@H](NC(=O)[C@@H](NC(=O)[C@H](C)NC(=O)[C@H](CC(C)C)NC(=O)[C@H](CCC(=O)O)NC(=O)[C@H](CO)NC(=O)[C@@H](NC(=O)[C@H](Cc1ccccc1)NC(=O)[C@@H](NC(=O)CNC(=O)[C@H](CCC(=O)O)NC(=O)C(C)(C)NC(=O)[C@@H](N)Cc1c[nH]cn1)[C@@H](C)O)[C@@H](C)O)[C@@H](C)O)[C@@H](C)CC)[C@@H](C)CC)C(=O)N[C@@H](C)C(=O)N[C@@H](Cc1c[nH]cn1)C(=O)N[C@@H](CCCCN)C(=O)N[C@H](C(=O)N[C@H](C(=O)N[C@@H](CC(=O)O)C(=O)O)[C@@H](C)O)[C@@H](C)CC
B2: Compound 5 (peptide)
peptide: H-H[Aib]EGTFTSELATILDEQAARDFIAWLIEHKITD-OH
SMILES: CC[C@H](C)[C@H](NC(=O)[C@H](Cc1ccccc1)NC(=O)[C@H](CC(=O)O)NC(=O)[C@H](CCCNC(=N)N)NC(=O)[C@H](C)NC(=O)[C@H](C)NC(=O)[C@H](CCC(N)=O)NC(=O)[C@H](CCC(=O)O)NC(=O)[C@H](CC(=O)O)NC(=O)[C@H](CC(C)C)NC(=O)[C@@H](NC(=O)[C@@H](NC(=O)[C@H](C)NC(=O)[C@H](CC(C)C)NC(=O)[C@H](CCC(=O)O)NC(=O)[C@H](CO)NC(=O)[C@@H](NC(=O)[C@H](Cc1ccccc1)NC(=O)[C@@H](NC(=O)CNC(=O)[C@H](CCC(=O)O)NC(=O)C(C)(C)NC(=O)[C@@H](N)Cc1c[nH]cn1)[C@@H](C)O)[C@@H](C)O)[C@@H](C)O)[C@@H](C)CC)C(=O)N[C@@H](C)C(=O)N[C@@H](Cc1c[nH]c2ccccc12)C(=O)N[C@@H](CC(C)C)C(=O)N[C@H](C(=O)N[C@@H](CCC(=O)O)C(=O)N[C@@H](Cc1c[nH]cn1)C(=O)N[C@@H](CCCCN)C(=O)N[C@H](C(=O)N[C@H](C(=O)N[C@@H](CC(=O)O)C(=O)O)[C@@H](C)O)[C@@H](C)CC)[C@@H](C)CC
B3: Compound 7 (peptide)
peptide: H-H[Aib]EGSFTSELATILDEQAARDFIAWLIYHKITD-OH
SMILES: CC[C@H](C)[C@H](NC(=O)[C@H](Cc1ccccc1)NC(=O)[C@H](CC(=O)O)NC(=O)[C@H](CCCNC(=N)N)NC(=O)[C@H](C)NC(=O)[C@H](C)NC(=O)[C@H](CCC(N)=O)NC(=O)[C@H](CCC(=O)O)NC(=O)[C@H](CC(=O)O)NC(=O)[C@H](CC(C)C)NC(=O)[C@@H](NC(=O)[C@@H](NC(=O)[C@H](C)NC(=O)[C@H](CC(C)C)NC(=O)[C@H](CCC(=O)O)NC(=O)[C@H](CO)NC(=O)[C@@H](NC(=O)[C@H](Cc1ccccc1)NC(=O)[C@H](CO)NC(=O)CNC(=O)[C@H](CCC(=O)O)NC(=O)C(C)(C)NC(=O)[C@@H](N)Cc1c[nH]cn1)[C@@H](C)O)[C@@H](C)O)[C@@H](C)CC)C(=O)N[C@@H](C)C(=O)N[C@@H](Cc1c[nH]c2ccccc12)C(=O)N[C@@H](CC(C)C)C(=O)N[C@H](C(=O)N[C@@H](Cc1ccc(O)cc1)C(=O)N[C@@H](Cc1c[nH]cn1)C(=O)N[C@@H](CCCCN)C(=O)N[C@H](C(=O)N[C@H](C(=O)N[C@@H](CC(=O)O)C(=O)O)[C@@H](C)O)[C@@H](C)CC)[C@@H](C)CC
B4: Compound 6 (peptide)
peptide: H-H[Aib]EGSFTSELATILDEQAARDFIAWLIHHKITD-OH
SMILES: CC[C@H](C)[C@H](NC(=O)[C@H](Cc1ccccc1)NC(=O)[C@H](CC(=O)O)NC(=O)[C@H](CCCNC(=N)N)NC(=O)[C@H](C)NC(=O)[C@H](C)NC(=O)[C@H](CCC(N)=O)NC(=O)[C@H](CCC(=O)O)NC(=O)[C@H](CC(=O)O)NC(=O)[C@H](CC(C)C)NC(=O)[C@@H](NC(=O)[C@@H](NC(=O)[C@H](C)NC(=O)[C@H](CC(C)C)NC(=O)[C@H](CCC(=O)O)NC(=O)[C@H](CO)NC(=O)[C@@H](NC(=O)[C@H](Cc1ccccc1)NC(=O)[C@H](CO)NC(=O)CNC(=O)[C@H](CCC(=O)O)NC(=O)C(C)(C)NC(=O)[C@@H](N)Cc1c[nH]cn1)[C@@H](C)O)[C@@H](C)O)[C@@H](C)CC)C(=O)N[C@@H](C)C(=O)N[C@@H](Cc1c[nH]c2ccccc12)C(=O)N[C@@H](CC(C)C)C(=O)N[C@H](C(=O)N[C@@H](Cc1c[nH]cn1)C(=O)N[C@@H](Cc1c[nH]cn1)C(=O)N[C@@H](CCCCN)C(=O)N[C@H](C(=O)N[C@H](C(=O)N[C@@H](CC(=O)O)C(=O)O)[C@@H](C)O)[C@@H](C)CC)[C@@H](C)CC
B5: Compound 4 (peptide)
peptide: H-H[Aib]EGSFTSELATILDEQAARDFIAWLIEHKITD-OH
SMILES: CC[C@H](C)[C@H](NC(=O)[C@H](Cc1ccccc1)NC(=O)[C@H](CC(=O)O)NC(=O)[C@H](CCCNC(=N)N)NC(=O)[C@H](C)NC(=O)[C@H](C)NC(=O)[C@H](CCC(N)=O)NC(=O)[C@H](CCC(=O)O)NC(=O)[C@H](CC(=O)O)NC(=O)[C@H](CC(C)C)NC(=O)[C@@H](NC(=O)[C@@H](NC(=O)[C@H](C)NC(=O)[C@H](CC(C)C)NC(=O)[C@H](CCC(=O)O)NC(=O)[C@H](CO)NC(=O)[C@@H](NC(=O)[C@H](Cc1ccccc1)NC(=O)[C@H](CO)NC(=O)CNC(=O)[C@H](CCC(=O)O)NC(=O)C(C)(C)NC(=O)[C@@H](N)Cc1c[nH]cn1)[C@@H](C)O)[C@@H](C)O)[C@@H](C)CC)C(=O)N[C@@H](C)C(=O)N[C@@H](Cc1c[nH]c2ccccc12)C(=O)N[C@@H](CC(C)C)C(=O)N[C@H](C(=O)N[C@@H](CCC(=O)O)C(=O)N[C@@H](Cc1c[nH]cn1)C(=O)N[C@@H](CCCCN)C(=O)N[C@H](C(=O)N[C@H](C(=O)N[C@@H](CC(=O)O)C(=O)O)[C@@H](C)O)[C@@H](C)CC)[C@@H](C)CC

The binders below were run against human glucagon-like peptide 1 receptor (GLP-1R) (human, UniProt P43220 24-463) (assay: cell-based or functional assay).

Row | Binder | EC50 GLP-1 (nM); cAMP AlphaScreen, HEK293 cells expressing human GLP-1R
1 | B1 | 0.0074 nM
2 | B2 | 0.0098 nM
3 | B3 | 0.017 nM
4 | B4 | 0.014 nM
5 | HGDGSFSDEMNTILDNLAARDFINWLIQTKITD [Teduglutide] | 39 nM
6 | B5 | 0.015 nM

The binders below were run against T1, human GLP-2 receptor (hGLP2-R) (assay: cell-based or functional assay).

Row | Binder | EC50 GLP-2 (nM); cAMP AlphaScreen, HEK293 cells expressing human GLP-2R
7 | B1 | 0.036 nM
8 | B2 | 0.067 nM
9 | B3 | 0.11 nM
10 | B4 | 0.047 nM
11 | B5 | 0.044 nM
